Test system: Escherichia coli TOP10
Experiment: shrunken log2 fold change of peptide-encoding DNA abundance (4.5 h post-induction vs induction); higher = less antimicrobial activity (less host growth inhibition)
Details: time post-induction: 4.5 h; library: site-saturation at positions 5, 18, 19, 20
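Further: peptides expressed intracellularly from a pBAD plasmid library in pooled LB shake-flask culture, induced with 0.3% L-arabinose, DNA abundance read by NGS, three biological replicates, DESeq2 with apeglm shrinkage.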

| Sequence | shrunken log2 fold change |
| --- | --- |
| RRIRNRPPRLPRPRPRPRNFPRP | -0.132 |
| RRIRMRPPRLPRPRPRPAYHPRP | -0.157 |
| RRIRLRPPRLPRPRPRPIFGPRP | 0.0171 |
| RRIRDRPPRLPRPRPRPMGPPRP | -0.00107 |
| RRIRTRPPRLPRPRPRPGKLPRP | -0.394 |
| RRIRLRPPRLPRPRPRPIMYPRP | -0.16 |
| RRIRQRPPRLPRPRPRPFLKPRP | -0.939 |
| RRIRQRPPRLPRPRPRPVKMPRP | -0.211 |
| RRIRWRPPRLPRPRPRPPFLPRP | 0.26 |
| RRIRDRPPRLPRPRPRPYPKPRP | -0.143 |
| RRIRQRPPRLPRPRPRPDSWPRP | 0.0403 |
| RRIRYRPPRLPRPRPRPCDIPRP | -0.334 |
| RRIRDRPPRLPRPRPRPFQTPRP | 0.0255 |
| RRIRNRPPRLPRPRPRPFFWPRP | 0.0463 |
| RRIRFRPPRLPRPRPRPFNHPRP | -0.285 |
| RRIRYRPPRLPRPRPRPVNVPRP | -0.0979 |
| RRIRDRPPRLPRPRPRPVNDPRP | -0.163 |
| RRIRYRPPRLPRPRPRPKLVPRP | -0.067 |
| RRIRIRPPRLPRPRPRPYYIPRP | -0.552 |
| RRIRPRPPRLPRPRPRPQINPRP | -0.122 |
| RRIRQRPPRLPRPRPRPQQWPRP | 0.201 |
| RRIRARPPRLPRPRPRPGDHPRP | 0.114 |

| Sequence | shrunken log2 fold change |
| --- | --- |
| RRIRKRPPRLPRPRPRPLYCPRP | -0.237 |
| RRIRERPPRLPRPRPRPLNWPRP | -0.373 |
| RRIRMRPPRLPRPRPRPKRVPRP | 0.0291 |
| RRIRFRPPRLPRPRPRPACVPRP | -0.0826 |
| RRIRNRPPRLPRPRPRPKDHPRP | -0.218 |
| RRIRCRPPRLPRPRPRPVTMPRP | -0.49 |
| RRIRLRPPRLPRPRPRPKRFPRP | 0.104 |
| RRIRMRPPRLPRPRPRPSLQPRP | 0.385 |
| RRIRDRPPRLPRPRPRPFILPRP | -0.293 |
| RRIRWRPPRLPRPRPRPRDPPRP | 0.241 |
| RRIRKRPPRLPRPRPRPVSPPRP | 0.286 |
| RRIRSRPPRLPRPRPRPVEDPRP | -0.0519 |
| RRIRVRPPRLPRPRPRPPGNPRP | 0.17 |
| RRIRRRPPRLPRPRPRPTGIPRP | 0.872 |
| RRIRRRPPRLPRPRPRPGSAPRP | 0.378 |
| RRIRTRPPRLPRPRPRPPGGPRP | 0.637 |
| RRIRARPPRLPRPRPRPESGPRP | 0.793 |
| RRIRDRPPRLPRPRPRPRSTPRP | -0.00371 |
| RRIRERPPRLPRPRPRPPYLPRP | -0.0371 |
| RRIRERPPRLPRPRPRPYDPPRP | -0.0709 |
| RRIRARPPRLPRPRPRPWEPPRP | 0.18 |
| RRIRQRPPRLPRPRPRPTCEPRP | 0.0552 |

| Sequence | shrunken log2 fold change |
| --- | --- |
| RRIRRRPPRLPRPRPRPYIQPRP | -0.603 |
| RRIRMRPPRLPRPRPRPLNKPRP | 0.118 |
| RRIRMRPPRLPRPRPRPNLAPRP | 0.337 |
| RRIRERPPRLPRPRPRPKCNPRP | 0.0249 |
| RRIRCRPPRLPRPRPRPPMSPRP | -0.178 |
| RRIRVRPPRLPRPRPRPFVQPRP | -0.0696 |
| RRIRQRPPRLPRPRPRPQKDPRP | -0.29 |
| RRIRPRPPRLPRPRPRPKWDPRP | 0.319 |
| RRIRFRPPRLPRPRPRPFYTPRP | -0.89 |
| RRIRERPPRLPRPRPRPEPCPRP | -0.148 |
| RRIRMRPPRLPRPRPRPPDVPRP | 0.00748 |
| RRIRTRPPRLPRPRPRPQMHPRP | -0.426 |
| RRIRIRPPRLPRPRPRPQILPRP | 0.0356 |
| RRIRERPPRLPRPRPRPEFFPRP | -0.131 |
| RRIRVRPPRLPRPRPRPWPPPRP | 0.46 |
| RRIRNRPPRLPRPRPRPLDQPRP | -0.266 |
| RRIRKRPPRLPRPRPRPAIEPRP | 0.018 |
| RRIRGRPPRLPRPRPRPECDPRP | 2.16 |
| RRIRDRPPRLPRPRPRPDSLPRP | 0.0462 |
| RRIRDRPPRLPRPRPRPAIGPRP | 0.325 |
| RRIRWRPPRLPRPRPRPPIAPRP | 2.1 |
| RRIRCRPPRLPRPRPRPPNVPRP | 0.213 |

| Sequence | shrunken log2 fold change |
| --- | --- |
| RRIRQRPPRLPRPRPRPQCRPRP | 0.0527 |
| RRIRERPPRLPRPRPRPCFVPRP | -0.151 |
| RRIRTRPPRLPRPRPRPDSWPRP | -0.595 |
| RRIRSRPPRLPRPRPRPELQPRP | 0.239 |
| RRIRFRPPRLPRPRPRPSPHPRP | 0.0339 |
| RRIRIRPPRLPRPRPRPKHMPRP | -0.451 |
| RRIRTRPPRLPRPRPRPFNYPRP | -0.269 |
| RRIRPRPPRLPRPRPRPAQDPRP | 0.0233 |
| RRIRHRPPRLPRPRPRPNCKPRP | -0.211 |
| RRIRCRPPRLPRPRPRPAHAPRP | 0.373 |
| RRIRNRPPRLPRPRPRPTCFPRP | 0.0784 |
| RRIRYRPPRLPRPRPRPKPNPRP | -0.158 |
| RRIRQRPPRLPRPRPRPGKDPRP | -0.115 |
| RRIRVRPPRLPRPRPRPIDRPRP | -0.0529 |
| RRIRPRPPRLPRPRPRPEQYPRP | -0.226 |
| RRIRVRPPRLPRPRPRPEIVPRP | -0.0567 |
| RRIRRRPPRLPRPRPRPNQFPRP | 0.119 |
| RRIRVRPPRLPRPRPRPVPKPRP | 0.128 |
| RRIRKRPPRLPRPRPRPGFWPRP | 0.537 |
| RRIRLRPPRLPRPRPRPEWEPRP | 0.0256 |
| RRIRYRPPRLPRPRPRPDMEPRP | -0.0135 |
| RRIRHRPPRLPRPRPRPMYMPRP | -0.369 |

| Sequence | shrunken log2 fold change |
| --- | --- |
| RRIRCRPPRLPRPRPRPRLLPRP | 0.159 |
| RRIRNRPPRLPRPRPRPFGFPRP | -0.132 |
| RRIRVRPPRLPRPRPRPGGEPRP | 0.386 |
| RRIRYRPPRLPRPRPRPNEQPRP | 0.0039 |
| RRIRMRPPRLPRPRPRPSMWPRP | 0.09 |
| RRIRARPPRLPRPRPRPESDPRP | 1.17 |
| RRIRVRPPRLPRPRPRPRGIPRP | 0.235 |
| RRIRERPPRLPRPRPRPWWMPRP | -0.436 |
| RRIRKRPPRLPRPRPRPLGVPRP | 0.438 |
| RRIRARPPRLPRPRPRPTWNPRP | 0.279 |
| RRIRHRPPRLPRPRPRPIYWPRP | -0.181 |
| RRIRTRPPRLPRPRPRPERKPRP | 0.0268 |
| RRIRVRPPRLPRPRPRPNCRPRP | -0.0746 |
| RRIRHRPPRLPRPRPRPTFMPRP | -0.102 |
| RRIRERPPRLPRPRPRPIVLPRP | -0.579 |
| RRIRERPPRLPRPRPRPLLYPRP | -0.309 |
| RRIRHRPPRLPRPRPRPYYPPRP | -0.228 |
| RRIRNRPPRLPRPRPRPGHKPRP | 0.0903 |
| RRIRDRPPRLPRPRPRPRPMPRP | 0.583 |
| RRIRYRPPRLPRPRPRPSAWPRP | 0.199 |
| RRIRGRPPRLPRPRPRPICQPRP | 0.655 |
